Target: Neuropeptide Y (NPY) (UniProt P01303 29-64)
Test: electrochemical impedance spectroscopy

B1: NPY aptamer (80-base ssDNA) (ssDNA)
DNA: AGCAGCACAGAGGTCAGATGCAAACCACAGCCTGAGTGGTTAGCGTATGTCATTTACGGACCTATGCGTGCTACCGTGAA
modifications: 5' disulfide C6 (reduced to thiol), immobilized on Au
B1: binds.
